Columns and labels:
[1] = molecular target: Avi-tagged follistatin-288, biotinylated (UniProt P19883); experiment: BLI; biotinylated Avi-tagged FST-288 immobilised on streptavidin biosensors; analytes in kinetic buffer (PBS, 0.1% bovine serum albumin, 0.02% Tween-20); 600 s association, 600 s dissociation; 30 °C
[2] = molecular target: myostatin mature domain (Homo sapiens) (UniProt O14793); settings: cited from earlier work
[3] = molecular target: activin A mature domain (Homo sapiens) (UniProt P08476); settings: cited from earlier work
Sequence of activin A mature domain (Homo sapiens) (P08476 311-426): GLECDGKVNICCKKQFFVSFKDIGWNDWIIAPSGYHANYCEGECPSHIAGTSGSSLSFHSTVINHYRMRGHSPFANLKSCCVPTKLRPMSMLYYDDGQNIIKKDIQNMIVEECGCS

[4] = molecular target: myostatin mature domain mature domain (Homo sapiens) (UniProt O14793); settings: cited from earlier work
Sequence of myostatin mature domain mature domain (Homo sapiens) (O14793 267-375): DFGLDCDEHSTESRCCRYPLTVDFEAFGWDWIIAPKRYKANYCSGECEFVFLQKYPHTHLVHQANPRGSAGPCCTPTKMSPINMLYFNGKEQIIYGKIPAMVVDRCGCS

Sequence of Avi-tagged follistatin-288, biotinylated (P19883 30-317): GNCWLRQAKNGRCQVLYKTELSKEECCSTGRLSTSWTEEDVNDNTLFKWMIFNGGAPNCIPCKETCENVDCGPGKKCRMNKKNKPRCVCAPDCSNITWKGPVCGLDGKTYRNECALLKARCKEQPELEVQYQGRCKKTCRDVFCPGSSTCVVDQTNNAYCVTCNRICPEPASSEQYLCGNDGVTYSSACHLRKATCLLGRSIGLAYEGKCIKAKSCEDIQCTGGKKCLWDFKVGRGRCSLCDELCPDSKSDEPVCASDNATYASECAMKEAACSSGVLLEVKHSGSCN
Sequence of myostatin pro-domain pro-domain (O14793 24-266): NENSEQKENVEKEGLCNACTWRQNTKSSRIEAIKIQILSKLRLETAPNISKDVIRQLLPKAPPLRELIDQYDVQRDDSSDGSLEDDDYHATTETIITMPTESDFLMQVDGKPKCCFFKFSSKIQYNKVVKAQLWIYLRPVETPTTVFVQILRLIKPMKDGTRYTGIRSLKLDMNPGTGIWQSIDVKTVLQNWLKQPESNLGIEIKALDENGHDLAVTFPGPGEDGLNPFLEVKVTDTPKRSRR
Sequence of myostatin mature domain (Homo sapiens) (O14793 267-375): as the sequence (O14793 267-375) above
Sequence of follistatin FST-288 (P19883 30-344): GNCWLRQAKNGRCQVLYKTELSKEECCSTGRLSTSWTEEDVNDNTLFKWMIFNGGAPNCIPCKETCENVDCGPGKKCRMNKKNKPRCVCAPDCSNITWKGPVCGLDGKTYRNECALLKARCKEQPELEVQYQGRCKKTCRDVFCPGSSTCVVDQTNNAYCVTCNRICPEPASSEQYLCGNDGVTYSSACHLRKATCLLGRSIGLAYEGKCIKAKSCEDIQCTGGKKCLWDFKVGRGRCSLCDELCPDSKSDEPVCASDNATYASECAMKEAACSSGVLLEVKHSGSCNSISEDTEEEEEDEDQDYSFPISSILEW
Sequence of follistatin (P19883 30-344): as above

“cleaved pro-activin A complex (pro-mature complex) (from UniProt P08476 311-426)” gave a Kd [1] of 0.259 nM.
For follistatin (from UniProt P19883), the Kd [2] is given as 12.3 nM.
In the case of “follistatin FST-288 (from UniProt P19883)”, the Kd [3] is given as 0.0465 nM.
For “myostatin pro-domain pro-domain (from UniProt O14793)”, the Kd [4] is listed as 8.3 nM.
